Assay results: publication PMC12394722, “Regulatory role of the N-terminal intrinsically disordered region of the DEAD-box RNA helicase DDX3X in selective RNA recognition”

Target: MBP-FL DDX3X (human, UniProt O00571 1-662)
Test: EMSA; 1 mM ATP-Mg; peer review file prints 665; EMSA: 20 mM K-phosphate pH 7.0, 125 mM KCl, 1 mM DTT, 0.005% Tween-20, 10% glycerol (1 mM ATP-Mg for MBP-FL/Core-C), gel at room temperature; ITC: 20 mM K-phosphate pH 7.0, 50 mM KCl, 25 C; NMR: 200 mM KCl (also 120 mM), 10 C, 50 uM
Settings: protein: recombinant; tags: N-terminal His6-MBP; chain copies: 2; label: 3'-FAM; blunt, self-complementary

MBP-FL DDX3X, sequence (O00571 whole entry): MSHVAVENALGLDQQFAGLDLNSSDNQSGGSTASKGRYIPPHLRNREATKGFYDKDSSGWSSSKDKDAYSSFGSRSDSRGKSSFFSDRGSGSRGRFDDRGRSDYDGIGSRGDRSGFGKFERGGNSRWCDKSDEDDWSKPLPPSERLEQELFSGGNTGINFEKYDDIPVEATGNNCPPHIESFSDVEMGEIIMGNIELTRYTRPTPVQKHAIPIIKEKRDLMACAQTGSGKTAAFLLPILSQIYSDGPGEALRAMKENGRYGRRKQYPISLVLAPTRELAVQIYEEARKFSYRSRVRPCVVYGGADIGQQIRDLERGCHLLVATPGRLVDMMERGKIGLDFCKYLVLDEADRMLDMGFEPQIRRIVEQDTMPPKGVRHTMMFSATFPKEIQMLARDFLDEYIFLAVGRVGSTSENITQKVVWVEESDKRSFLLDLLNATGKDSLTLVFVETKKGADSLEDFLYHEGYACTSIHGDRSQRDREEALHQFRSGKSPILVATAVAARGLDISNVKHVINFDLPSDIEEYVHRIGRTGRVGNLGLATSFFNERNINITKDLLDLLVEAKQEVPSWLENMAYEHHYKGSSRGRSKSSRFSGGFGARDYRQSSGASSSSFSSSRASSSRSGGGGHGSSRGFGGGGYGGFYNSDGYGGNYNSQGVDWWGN

B1: GC-14mer dsRNA-FAM (dsRNA)
RNA 1: GGGCGGGCCCGCCC
RNA 2: GGGCGGGCCCGCCC
  Kd: 655 ± 31 nM
